± gives the uncertainty stated by the source.
B1: library; numbered along this chain (parent)
chain: MEVVDPQQLGMFTEGELMSVGMDTFIHRIDSTEVIYQPRRKRAKLIGKYLMGDLLGEGSYGKVKEVLDSETLCRRAVKILKKKKLRRIPNGEANVKKEIQLLRRLRHKNVIQLVDVLYNEEKQKMYMVMEYCVCGMQEMLDSVPEKRFPVCQAHGYFCQLIDGLEYLHSQGIVHKDIKPGNLLLTTGGTLKISDLGVAEALHPFAADDTCRTSQGSPAFQPPEIANGLDTFSGFKVDIWSAGVTLYNITTGLYPFEGDNIYKLFENIGKGSYAIPGDCGPPLSDLLKGMLEYEPAKRFSIRQIRQHSWFRKKHPPAEAPVPIPPSPDTKDRWRSMTVVPYLEDLHGADEDEDLFDIEDDIIYTQDFTVPGQVPEEEASHNGQRRGLPKAVCMNGTEAAQLSTKSRAEGRAPNPARKACSASSKIRRLSACKQQ

Variants of: B1
Experiment: STK11 functional score (HeLa growth suppression), rescaled enrichment; synonymous median = 1, nonsense median = 0 (normalised score)
Conditions: with HeLa; variant type: missense
Outline: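 The values are functional scores: wild-type-corrected log ratios of post- versus pre-selection abundance, rescaled to synonymous and nonsense medians, merged over codons and replicate transfections, and carrying bootstrapped error. They derive from codon-randomised (POPCode), codon-optimised STK11 libraries that Bxb1 integrated at an AAVS1 landing pad in HeLa, with three transfections for each of three regions. Sequencing of tiled gDNA amplicons ran on NextSeq, at ~2 million reads per tile.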

| Variant | STK11 functional score |
| --- | --- |
| N119I | 1.51 ± 0.062 |
| G268Q | 1.26 ± 0.61 |
| G268N | 1.03 ± 0.38 |
| I238N | 1.22 ± 0.86 |
| G10Y | 1.18 ± 0.15 |
| G10F | 1.56 ± 0.41 |
| S419L | 1.17 ± 0.14 |
| V173I | 1.52 ± 0.25 |
| Y246D | -0.149 ± 0.14 |
| E342G | 1 ± 0.34 |
| E342W | 1.19 ± 0.28 |
| K62T | 1.7 ± 0.36 |
| S325N | 1.47 ± 0.18 |
| N412K | 0.831 ± 0.33 |
| P319F | 1.47 ± 0.26 |
| V77Q | 0.597 ± 0.56 |
| E396D | 1.45 ± 0.49 |
| S216W | -0.0568 ± 0.11 |
| S216A | 0.851 ± 0.13 |
| S216R | -0.166 ± 0.096 |
| R40E | 1.41 ± 0.47 |
| R40G | 1.19 ± 0.27 |
| K84T | 0.646 ± 0.11 |
| K84S | 1.71 ± 0.19 |

| Variant | STK11 functional score |
| --- | --- |
| G242I | -0.186 ± 0.099 |
| R333P | 1.64 ± 0.23 |
| R211G | 1.51 ± 0.2 |
| R211H | 1.32 ± 0.11 |
| E33S | 0.81 ± 0.15 |
| M129F | 0.993 ± 0.47 |
| N94G | 0.953 ± 0.18 |
| K44S | 1.4 ± 0.21 |
| T402G | 1.13 ± 0.21 |
| A153M | -0.195 ± 0.097 |
| N226S | 0.759 ± 0.096 |
| N226C | 1.29 ± 0.27 |
| K388T | 1.42 ± 0.34 |
| K388R | 1.54 ± 0.28 |
| K388E | 1.42 ± 0.33 |
| K388S | 1.19 ± 0.28 |
| V63R | -0.0566 ± 0.15 |
| V63S | 1.27 ± 0.23 |
| G288Y | 0.713 ± 0.46 |
| G288I | -0.0856 ± 0.36 |
| G394R | 1.17 ± 0.3 |
| G279F | 1.27 ± 0.17 |
| P339C | 1.59 ± 0.11 |
| E317R | 1.58 ± 0.22 |

| Variant | STK11 functional score |
| --- | --- |
| E317H | 1.25 ± 0.28 |
| E317P | 1.6 ± 0.21 |
| E317S | 0.661 ± 0.31 |
| K78T | 0.086 ± 0.54 |
| E223G | 0.169 ± 0.077 |
| E351Q | 1.28 ± 0.6 |
| V368H | 1.08 ± 0.6 |
| F298G | -0.228 ± 0.09 |
| I267D | 0.629 ± 0.22 |
| L182N | 1.01 ± 0.31 |
| T363C | 1.33 ± 0.48 |
| T363Y | 1.18 ± 0.44 |
| A414Y | 1.58 ± 0.12 |
| A414W | 1.63 ± 0.15 |
| Y126S | 0.6 ± 0.1 |
| M51R | 1.16 ± 0.5 |
| G180A | 1.34 ± 0.32 |
| G180S | 1.14 ± 0.18 |
| V338R | 0.93 ± 0.4 |
| E121P | 1.66 ± 0.23 |
| E121A | 0.765 ± 0.27 |
| E121R | 1.31 ± 0.17 |
| I88L | 1.24 ± 0.26 |
| T185I | 0.548 ± 0.088 |

| Variant | STK11 functional score |
| --- | --- |
| P323F | 1.36 ± 0.33 |
| H168F | 0.851 ± 0.51 |
| R86P | 1.3 ± 0.17 |
| R86M | -0.183 ± 0.08 |
| R86G | 1.3 ± 0.46 |
| D207N | 0.668 ± 0.74 |
| L282P | 0.541 ± 0.13 |
| L282G | 0.43 ± 0.11 |
| K41I | 0.844 ± 0.095 |
| V128F | 1.13 ± 0.21 |
| V128R | 0.15 ± 0.084 |
| L245A | 0.101 ± 0.099 |
| F148G | -0.0254 ± 0.081 |
| N266S | 0.965 ± 0.15 |
| V114C | 0.202 ± 0.086 |
| V114A | 0.829 ± 0.086 |
| A218I | 0.926 ± 0.16 |
| A218F | 1.26 ± 0.17 |
| A218R | 0.926 ± 0.14 |
| A316V | 0.768 ± 0.24 |
| I111T | 0.687 ± 0.27 |
| I111M | 0.886 ± 0.36 |
| Y36F | 0.511 ± 0.078 |
| Q112Y | 1.01 ± 0.096 |

| Variant | STK11 functional score |
| --- | --- |
| V236C | 1.44 ± 0.47 |
| S428A | 1.14 ± 0.54 |
| Y362N | 1.47 ± 0.15 |
| K81V | 0.987 ± 0.11 |
| K416I | 1.55 ± 0.19 |
| G257A | 1.25 ± 0.6 |
| M136E | 0.000415 ± 0.084 |
| Q159S | 0.691 ± 0.22 |
| Q364S | 1.4 ± 0.19 |
| A398C | 1.35 ± 0.39 |
| E357L | 1.54 ± 0.31 |
| H306C | 0.975 ± 0.1 |
| H306R | 0.628 ± 0.086 |
| M127R | 0.302 ± 0.094 |
| H345Y | 1.12 ± 0.3 |
| H345P | 1.29 ± 0.27 |
| L201P | 1.36 ± 0.18 |
| L201F | 0.797 ± 0.33 |
| V4S | 0.996 ± 0.14 |
| P411W | 0.581 ± 0.075 |
| L113Y | 1.67 ± 0.24 |
| K235N | 0.877 ± 0.28 |
| K235Q | 1.58 ± 0.35 |
| I177W | -0.249 ± 0.086 |

| Variant | STK11 functional score |
| --- | --- |
| I177P | 0.166 ± 0.58 |
| I177A | 0.128 ± 0.22 |
| D237H | 1.53 ± 0.7 |
| Q432G | 1.61 ± 0.27 |
| Q399D | 1.39 ± 0.34 |
| Q399M | 0.653 ± 0.13 |
| H174C | 0.891 ± 0.41 |
| N380P | 1.59 ± 0.26 |
| N380S | 0.982 ± 0.22 |
| N380T | 1.31 ± 0.45 |
| Q220T | 1.67 ± 0.23 |
| V110Y | 0.623 ± 0.43 |
| P38S | 1.06 ± 0.12 |
| C151Q | 1.54 ± 0.39 |
| C151P | 0.45 ± 0.22 |
| L72W | 1.08 ± 0.51 |
| F219K | -0.214 ± 0.31 |
| V133G | 1.14 ± 0.091 |
| G47R | 1.31 ± 0.58 |
| L55V | 0.737 ± 0.11 |
| P280A | 0.896 ± 0.17 |
| P280Q | 1.36 ± 0.4 |
| I172R | 0.401 ± 0.096 |
| I172A | 1.02 ± 0.78 |

| Variant | STK11 functional score |
| --- | --- |
| P281I | 1.46 ± 0.18 |
| E138V | 0.367 ± 0.2 |
| E138M | 1.27 ± 0.18 |
| T189P | 1.12 ± 0.41 |
| P321A | 0.987 ± 0.33 |
| P326C | 1.34 ± 0.39 |
| K97D | 1.27 ± 0.21 |
| D115M | 1.06 ± 0.73 |
| C418Y | 1.6 ± 0.17 |
| S334V | 1.31 ± 0.2 |
| S334P | 1.43 ± 0.18 |
| K287V | 1.2 ± 0.36 |
| K287I | 1.27 ± 0.33 |
| K287Y | 0.843 ± 0.36 |
| S31G | 1.57 ± 0.12 |
| T212R | 1.48 ± 0.21 |
| T212G | 1.3 ± 0.42 |
| T212I | 1.13 ± 0.55 |
| P294N | 0.433 ± 0.32 |
| D330N | 1.44 ± 0.48 |
| D53G | 0.726 ± 0.14 |
| D53E | 0.779 ± 0.31 |
| L117H | 1.05 ± 0.37 |

— the supplement of paper PMC12338614
